We go through two proteins from article PMC6579858.

A short description of the series: FACS of transfected HeLa. As to conditions: glycan lost; control: wild type MOG.

B1: myelin oligodendrocyte glycoprotein (MOG): N31A (protein)
parent chain: MASLSRPSLPSCLCSFLLLLLLQVSSSYAGQFRVIGPRHPIRALVGDEVELPCRISPGKNATGMEVGWYRPPFSRVVHLYRNGKDQDGDQAPEYRGRTELLKDAIGEGKVTLRIRNVRFSDEGGFTCFFRDHSYQEEAAMELKVEDPFYWVSPGVLVLLAVLPVLLLQITVGLIFLCLQYRLRGKLRAEIENLHRTFDPHFLRVPCWKITLFVIVPVLGPLVALIICYNWLHRRLAGQFLEELRNPF
On to B1, for which the expression_or_secretion entry is recorded as “no change”.

B2: myelin oligodendrocyte glycoprotein (MOG): N31D (protein)
parent chain: B1 parent chain
Regarding B2, the expression_or_secretion entry is “no change”.
